Patent US12559863B2, “Macrocyclic modulators of disease associated protein misfolding and aggregation” (RESQ BIOTECH, priority 2017, dated 2026)

Target: T1, Aβ42-GFP (Homo sapiens, UniProt P05067)
T1 construct: a chimeric fusion of the human Aβ(1-42) peptide (Aβ42) with GFP; expressed in transfected cells; host or cells: E. coli BL21(DE3)
Experiment: High-throughput sequencing of pSICLOPPS vectors isolated after bacterial sorting for enhanced Aβ42-GFP fluorescence
Conditions: for Reads/Total TXXXR reads (%): relative to total TXXXR reads; for Normalized read number (%): Table 3, cyclo-TXXR tetrapeptides
How it was run: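 E. coli BL21(DE3) expressing Aβ42-GFP from the T7 promoter was co-transformed with cyclic peptide libraries (0.002% L-arabinose, 0.1 mM IPTG at OD600 ~0.5, 37° C). High-fluorescence cells were sorted over repeated rounds. Plasmid peptide-encoding regions were then sequenced by Ion Torrent, discarding sequences with stop codons.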

[1] = after the second round of bacterial sorting
[2] = after the second round of bacterial sorting, relative to total pentapeptide reads
[3] = after the second round of bacterial sorting, relative to total peptide reads
[4] = high-throughput sequencing of isolated pSICLOPPS-NuX1X2X3-X5 vectors after the second round of bacterial sorting for enhanced Aβ42-GFP fluorescence, selected cyclo-TXXXR pentapeptides
[5] = Table 4, hexapeptides, after second round of sorting
[6] = after the second round of bacterial sorting for enhanced Aβ42-GFP fluorescence
[7] = after the second round of bacterial sorting for enhanced Aβ42-GFP fluorescence, relative to total pentapeptide reads
[8] = after the second round of bacterial sorting for enhanced Aβ42-GFP fluorescence, relative to total peptide reads
[9] = pSICLOPPS-NuX1X2X3-X5 vectors after the second round of bacterial sorting for enhanced Aβ42-GFP fluorescence

Row | Substance | Reads/Total TXXXR reads (%) [1] | Reads/Total pentapeptide reads (%) [2] | Reads/Total peptide reads (%) [3] | Number of reads [4] | also measured
1 | AβC5-158 (TTGAR; cyclic) | 0.062% | 0.029% | 0.026% | 1,172 | 
2 | AβC5-276 (TSWAR; cyclic) | 0.013% | 0.006% | 0.005% | 249 | 
3 | AβC5-298 (TTRGR; cyclic) | 0.011% | 0.005% | 0.004% | 201 | 
4 | TPAWFD [AβC6-2] |  |  |  |  | Reads/Total hexapeptide reads (%) (Table 4): 24.555%; Reads/Total peptide reads (%) (Table 4): 2.453%; Number of reads [5]: 111,132
5 | TLLIRW [AβC6-8] |  |  |  |  | Reads/Total hexapeptide reads (%) (Table 4): 2.902%; Reads/Total peptide reads (%) (Table 4): 0.290%; Number of reads [5]: 13,135
6 | AβC5-35 (TVRDR; head-to-tail cyclic) | 1.337% | 0.626% | 0.561% | 25,428 | 
7 | TPIVFD [AβC6-36] |  |  |  |  | Reads/Total hexapeptide reads (%) (Table 4): 0.085%; Reads/Total peptide reads (%) (Table 4): 0.008%; Number of reads [5]: 384
8 | AβC5-260 (TTWTR; cyclic) | 0.016% | 0.007% | 0.007% | 295 | 
9 | TSVEYE [AβC6-41] |  |  |  |  | Reads/Total hexapeptide reads (%) (Table 4): 0.068%; Reads/Total peptide reads (%) (Table 4): 0.007%; Number of reads [5]: 307
10 | AβC5-130 (TAYHR; cyclic) | 0.136% | 0.064% | 0.057% | 2,594 | 
11 | AβC5-464 (TTPAR; cyclic pentapeptide) |  |  |  |  | Reads/Total TXXXR reads (%) [6]: 0.003%; Reads/Total pentapeptide reads (%) [7]: 0.001%; Reads/Total peptide reads (%) [8]: 0.001%; Number of reads [9]: 54
12 | TPPWFD [AβC6-44] |  |  |  |  | Reads/Total hexapeptide reads (%) (Table 4): 0.064%; Reads/Total peptide reads (%) (Table 4): 0.006%; Number of reads [5]: 289
13 | AβC5-361 (TTKWR; head-to-tail cyclic) | 0.006% | 0.003% | 0.002% | 108 | 
14 | AβC5-366 (TTMVR; head-to-tail cyclic) | 0.006% | 0.003% | 0.002% | 105 | 
15 | AβC5-355 (TATVR; head-to-tail cyclic) | 0.006% | 0.003% | 0.003% | 115 | 
16 | AβC5-262 (TTSSR; cyclic) | 0.015% | 0.007% | 0.006% | 286 | 
17 | TLEYFM [AβC6-28] |  |  |  |  | Reads/Total hexapeptide reads (%) (Table 4): 0.123%; Reads/Total peptide reads (%) (Table 4): 0.012%; Number of reads [5]: 556
18 | AβC5-378 (TTTGR; head-to-tail cyclic) | 0.005% | 0.002% | 0.002% | 96 | 
19 | AβC5-5 (TTTWR; cyclic pentapeptide) | 9.228% | 4.323% | 3.874% | 175,510 | 
20 | AβC5-395 (TTQHR; head-to-tail cyclic) |  |  |  |  | Reads/Total TXXXR reads (%) [6]: 0.004%; Reads/Total pentapeptide reads (%) [7]: 0.002%; Reads/Total peptide reads (%) [8]: 0.002%; Number of reads [9]: 85
21 | AβC5-26 (TAWCR; cyclic) | 1.493% | 0.699% | 0.627% | 28,391 | 

Row | Substance | Reads/Total TXXXR reads (%) [1] | Reads/Total pentapeptide reads (%) [2] | Reads/Total peptide reads (%) [3] | Number of reads [4] | also measured
22 | AβC5-188 (TGMRR; cyclic) | 0.040% | 0.019% | 0.017% | 768 | 
23 | AβC5-17 (TTTAR; cyclic) | 2.110% | 0.989% | 0.886% | 40,135 | 
24 | AβC5-44 (TAWAR; cyclic pentapeptide) | 1.094% | 0.512% | 0.459% | 20,807 | 
25 | AβC5-47 (TTIDR; cyclic pentapeptide) | 1.038% | 0.486% | 0.436% | 19,735 | 
26 | cyclo-SHSPT [AβC5-387] |  |  |  |  | Reads/Total SASPT-like reads (%) (Table 2): 0.337%; Reads/Total pentapeptide reads (%) (Table 2): 0.002%; Reads/Total peptide reads (%) (Table 2): 0.002%; Number of reads (Table 2, after second round of sorting): 89
27 | TLCWLN [AβC6-32] |  |  |  |  | Reads/Total hexapeptide reads (%) (Table 4): 0.101%; Reads/Total peptide reads (%) (Table 4): 0.010%; Number of reads [5]: 455
28 | AβC5-443 (TTHHR; cyclic pentapeptide) |  |  |  |  | Reads/Total TXXXR reads (%) [6]: 0.003%; Reads/Total pentapeptide reads (%) [7]: 0.001%; Reads/Total peptide reads (%) [8]: 0.001%; Number of reads [9]: 60
29 | TPALFD [AβC6-68] |  |  |  |  | Reads/Total hexapeptide reads (%) (Table 4): 0.022%; Reads/Total peptide reads (%) (Table 4): 0.002%; Number of reads [5]: 101
30 | cyclo-TTSR (cyclic) [AβC4-31] |  |  |  |  | Normalized read number (%): 0.3241%
31 | AβC5-266 (TTLRR; cyclic) | 0.014% | 0.007% | 0.006% | 274 | 
32 | AβC5-80 (TSVHR; cyclic) | 0.535% | 0.251% | 0.225% | 10,181 | 
33 | AβC5-422 (TAWRR; cyclic pentapeptide) |  |  |  |  | Reads/Total TXXXR reads (%) [6]: 0.004%; Reads/Total pentapeptide reads (%) [7]: 0.002%; Reads/Total peptide reads (%) [8]: 0.002%; Number of reads [9]: 72
34 | AβC5-177 (TATAR; cyclic) | 0.049% | 0.023% | 0.020% | 925 | 
35 | AβC5-21 (TTWCR; cyclic) | 1.908% | 0.894% | 0.801% | 36,295 | 
36 | AβC5-41 (TGWAR; head-to-tail cyclic) | 1.145% | 0.537% | 0.481% | 21,784 | 
37 | AβC5-376 (TIRDR; head-to-tail cyclic) | 0.005% | 0.002% | 0.002% | 96 | 
38 | AβC5-411 (TTQRR; cyclic pentapeptide) |  |  |  |  | Reads/Total TXXXR reads (%) [6]: 0.004%; Reads/Total pentapeptide reads (%) [7]: 0.002%; Reads/Total peptide reads (%) [8]: 0.002%; Number of reads [9]: 75
39 | cyclo-TTGR [AβC4-35] |  |  |  |  | Normalized read number (%): 0.295%
40 | TLWVFD [AβC6-37] |  |  |  |  | Reads/Total hexapeptide reads (%) (Table 4): 0.078%; Reads/Total peptide reads (%) (Table 4): 0.008%; Number of reads [5]: 355
41 | AβC5-50 (TALAR; cyclic pentapeptide) | 1.022% | 0.479% | 0.429% | 19,433 | 
